The values below are quoted from earlier work in PMC11339341.

Where two headings read alike, the source gives them in different places.

Targets include IFNAR1 (Homo sapiens) (UniProt P17181); IL-2Rβ:γc (Homo sapiens) (UniProt P14784); IL-4Rα (Homo sapiens) (UniProt P24394).
The target of data set [1] is IFNAR2 (Homo sapiens) (UniProt P48551).
Data set [2] has the same target. The source holds these as a separate data set.
In data set [3] the target is IL-2Rβ (Homo sapiens) (UniProt P14784).
Data set [4] shares this target. This is another data set of the same source.
The target is the same in data set [5]. The source holds these as a separate data set.
For data set [6] the target is unchanged. The source holds these as a separate data set.

Chain of UniProt P48551 (P48551 27-243): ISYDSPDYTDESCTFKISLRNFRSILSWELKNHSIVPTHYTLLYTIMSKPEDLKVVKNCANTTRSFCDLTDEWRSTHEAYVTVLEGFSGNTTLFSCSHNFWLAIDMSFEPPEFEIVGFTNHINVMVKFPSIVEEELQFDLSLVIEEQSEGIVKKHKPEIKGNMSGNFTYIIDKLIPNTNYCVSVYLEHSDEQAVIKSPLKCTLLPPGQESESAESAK
Chain of UniProt P17181 (P17181 28-436): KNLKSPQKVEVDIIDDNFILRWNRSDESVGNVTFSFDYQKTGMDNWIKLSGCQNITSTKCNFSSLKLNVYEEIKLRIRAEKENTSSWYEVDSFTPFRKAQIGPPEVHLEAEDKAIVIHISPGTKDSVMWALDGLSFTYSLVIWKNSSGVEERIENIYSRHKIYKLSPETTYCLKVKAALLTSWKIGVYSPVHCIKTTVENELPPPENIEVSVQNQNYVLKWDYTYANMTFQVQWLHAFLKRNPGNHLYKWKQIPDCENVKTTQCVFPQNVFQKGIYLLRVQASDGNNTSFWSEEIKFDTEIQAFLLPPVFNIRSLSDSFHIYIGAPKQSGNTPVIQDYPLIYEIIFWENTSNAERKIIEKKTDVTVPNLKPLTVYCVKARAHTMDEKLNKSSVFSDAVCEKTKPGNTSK

Regarding IFNα1 (from UniProt P0DY56), the Kd with IFNAR2 (Homo sapiens) [1] is 200 nM.
Regarding IFNβ (from UniProt P01574), the Kd is 0.2 nM with IFNAR2 (Homo sapiens) [2] and 50 nM with IFNAR1 (Homo sapiens).
As for IL-2 (from UniProt P60568), the Kd with IL-2Rβ:γc (Homo sapiens) was 1 nM; with IL-2Rβ (Homo sapiens) [3] it was 100 nM.
Consider “IL-2:IL-2Rα complex (from UniProt P60568)”, for which, in the data set with IL-2Rβ (Homo sapiens) [4], the Kd is 0.03 nM.
Consider IL-4 (from UniProt P05112), for which the Kd with IL-4Rα (Homo sapiens) was under 1 nM.
For IL-15 (from UniProt P40933), the Kd in the data set with IL-2Rβ (Homo sapiens) [5] is 438 nM.
“IL-15:IL-15Rα complex (from UniProt P40933)”: the Kd with IL-2Rβ (Homo sapiens) [6] was 3 nM.
